T1: cyno PD1 expressed on CHO-K1 cells (cynomolgus monkey, UniProt Q15116 25-288 (human entry))
T1 construct: also called cyno PD1+ CHO cells
T1 chain: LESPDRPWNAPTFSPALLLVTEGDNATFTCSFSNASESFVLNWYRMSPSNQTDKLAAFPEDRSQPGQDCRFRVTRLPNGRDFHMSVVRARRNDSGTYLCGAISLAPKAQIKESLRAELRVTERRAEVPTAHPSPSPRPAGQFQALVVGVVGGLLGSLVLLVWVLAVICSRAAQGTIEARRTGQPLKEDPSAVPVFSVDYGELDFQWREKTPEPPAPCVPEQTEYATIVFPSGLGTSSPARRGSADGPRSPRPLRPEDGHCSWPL

T2: human ULBP2 (UL16 binding protein 2) on transfected HEK293 cells (human, UniProt Q9BZM5 26-217)
T2 sequence: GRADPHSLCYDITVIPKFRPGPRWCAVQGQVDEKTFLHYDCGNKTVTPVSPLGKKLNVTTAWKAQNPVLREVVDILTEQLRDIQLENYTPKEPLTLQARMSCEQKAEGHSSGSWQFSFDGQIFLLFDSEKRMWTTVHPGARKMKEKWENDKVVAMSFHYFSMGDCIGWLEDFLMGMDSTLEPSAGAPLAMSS

T3: cynomolgus monkey PD1 His tag (monomeric) (cynomolgus monkey, UniProt Q15116 25-170 (human entry), limits assumed)
T3 construct: Soluble monomeric analyte; whole entry named; also called monomeric cyno PD1; not shown: His tag
T3 chain: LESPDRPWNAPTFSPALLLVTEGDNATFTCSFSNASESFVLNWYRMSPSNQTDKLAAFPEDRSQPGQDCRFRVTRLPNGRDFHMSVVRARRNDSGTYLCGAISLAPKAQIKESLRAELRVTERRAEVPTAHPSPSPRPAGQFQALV

B1: IgG1-08 (antibody, V domains shown)
VH: EVQLVESGGGLVQPGGSLRLSCAASGFTFSSYLMSWVRQAPGKGLEWVATISGGGSEKYYVDSVKGRFTISRDNAKNSLYLQMNSLRAEDTAVYYCARQLYGFDYWGQGTLVTVSS
VL: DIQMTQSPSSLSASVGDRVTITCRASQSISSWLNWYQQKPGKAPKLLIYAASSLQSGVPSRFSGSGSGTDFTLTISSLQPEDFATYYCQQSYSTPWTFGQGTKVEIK
notes: Designer; human IgG1null + Ckappa; also called Antibody IgG1-08; MAB08
B2: IgG1-05 (antibody, V domains shown)
VH: B1 VH with L100V, G102Y
VL: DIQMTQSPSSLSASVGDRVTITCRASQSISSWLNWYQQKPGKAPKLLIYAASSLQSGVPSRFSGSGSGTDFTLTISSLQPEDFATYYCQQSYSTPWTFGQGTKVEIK
notes: Designer; human IgG1null + Ckappa; also called Antibody IgG1-05
B3: IgG1-06D02 (antibody, V domains shown)
VH: B1 VH with K58T
VL: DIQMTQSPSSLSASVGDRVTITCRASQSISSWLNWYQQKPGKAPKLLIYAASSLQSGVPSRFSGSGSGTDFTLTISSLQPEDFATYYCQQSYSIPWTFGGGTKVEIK
notes: Library-derived; human IgG1null + Ckappa; also called Clone 06D02

Numbering of substitutions follows the chain as printed.

One experiment concerns the target T4, recombinant ectodomain of human VEGFR2 (human, UniProt P35968 20-764).
T4 construct: whole entry named
In words: direct ELISA.
As to B1, the binding result is “no binding”.
Turning to B2, the binding result was “no binding”.
The same measure, in the same setting: with B3 the entry was “no binding”.

The target of the next experiment is T5, biotinylated human PD1-His/AviTag (human, UniProt Q15116 25-170, limits assumed, biotinylated).
T5 construct: Alphascreen antigen; whole entry named; also called biotinylated monomeric human PD1; not shown: His/AviTag
T5 sequence (Q15116 25-170 limits assumed): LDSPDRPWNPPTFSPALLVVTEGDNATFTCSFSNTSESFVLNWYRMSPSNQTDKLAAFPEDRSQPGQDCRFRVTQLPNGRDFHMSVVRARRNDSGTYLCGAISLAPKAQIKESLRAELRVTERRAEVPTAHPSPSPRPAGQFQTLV
The experiment in a line: Alphascreen competition vs IgG1-Mab005 (humanized). The procedure:
The AlphaScreen assay (Perkin Elmer) was performed in a 25 μl final volume in 384-well white microtiter plates (Greiner). The reaction buffer contained 1×PBS pH 7.3 (Oxoid, Cat. nr. BRO014G) and 0.05% (v/v) Tween® 20 (Sigma, Cat. nr. P9416). Purified IgG samples were titrated in three fold serial dilutions starting at 500 nM final concentration and incubated with biotinylated human PD1-His/AviTag at 0.6 nM final concentration for 20 minutes at room temperature. […] Followed by addition of the Streptavidin Donor beads at 20 μg/ml (final concentration) and incubation for 30 minutes at room temperature. The emission of light was measured in the EnVision multilabel plate reader (Perkin Elmer) and analysed using the EnVision manager software. Values were reported as Counts Per Second (CPS) and corrected for crosstalk.
B1 came in with a half-inhibitory concentration (IC50) of 2.36 nM.
The same measure, in the same setting: with B2 the figure was 1.66 nM.
Same read-out and setting: with B3 the figure was 2.63 nM.

A further experiment has as its target T1, cyno PD1 expressed on CHO-K1 cells. In words: flow cytometry, PD1 CHO-K1 cells. The procedure:
(§1) Purified IgGs were tested in FACs for binding to human and cyno PD1 expressed on CHO-K1 stable cell lines and CHO-K1 wild-type cells. […] Binding of IgGs was detected with a mouse anti-human IgG conjugated to FITC. Results were analyzed by examining the Mean Fluorescence Intensity (MFI) of 10000 cells per sample in the BL-1 channel detector of a flow cytometer (Attune™ NxT Acoustic Focusing Cytometer, Invitrogen/ThermoFisher Scientific).
(§2) Antibodies to PD1 were analysed for concentration-dependent binding at the cell surface via flow cytometry. Initial analyses were performed on CHO cells stably-transfected with human or cyno PD1.
Turning to B1, the midpoint of the response, the EC50, lay at 2.03 nM.
On the same count and under the same terms, the result for B2 reads 2.52 nM; that for B3, 1.56 nM.

In the next experiment the target is T6, human PD1 expressed on cells (human, UniProt Q15116 25-288).
T6 construct: also called human PD1+ CHO cells; PD1-transfected HEK293 cells
T6 sequence (Q15116 25-288 limits assumed): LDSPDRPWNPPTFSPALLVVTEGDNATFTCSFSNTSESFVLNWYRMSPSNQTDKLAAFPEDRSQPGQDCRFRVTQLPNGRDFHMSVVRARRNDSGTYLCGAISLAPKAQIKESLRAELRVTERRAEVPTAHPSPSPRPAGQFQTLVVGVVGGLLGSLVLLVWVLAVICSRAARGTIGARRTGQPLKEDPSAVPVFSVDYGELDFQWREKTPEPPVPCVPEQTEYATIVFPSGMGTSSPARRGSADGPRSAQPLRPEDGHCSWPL
The experiment in a line: flow cytometry, PD1 CHO-K1 cells. The procedure: as §1, §2
B1: a half-maximal response (EC50) required 1.55 nM.
On the same count and under the same terms, with B2 the figure was 1.66 nM; with B3, 1.78 nM.

For the next experiment, the target named is T6, human PD1 expressed on cells. In words: cell-based or functional assay.
As for B1, the “EC50 (ng/ml), IgG1null blockade of human PD1/PD-L1” value turned out to be 127 ng/mL.
Still for that read-out and setting: with B2 the figure was 156 ng/mL; with B3, 224 ng/mL.

The target in another experiment is T7, human KDR (VEGFR2) on cells (human, UniProt P35968 20-1356).
T7 construct: Transfected HEK293 cells (arrays, flow cytometry) and human VEGFR2 reporter cells
T7 sequence (P35968 20-1356 limits assumed): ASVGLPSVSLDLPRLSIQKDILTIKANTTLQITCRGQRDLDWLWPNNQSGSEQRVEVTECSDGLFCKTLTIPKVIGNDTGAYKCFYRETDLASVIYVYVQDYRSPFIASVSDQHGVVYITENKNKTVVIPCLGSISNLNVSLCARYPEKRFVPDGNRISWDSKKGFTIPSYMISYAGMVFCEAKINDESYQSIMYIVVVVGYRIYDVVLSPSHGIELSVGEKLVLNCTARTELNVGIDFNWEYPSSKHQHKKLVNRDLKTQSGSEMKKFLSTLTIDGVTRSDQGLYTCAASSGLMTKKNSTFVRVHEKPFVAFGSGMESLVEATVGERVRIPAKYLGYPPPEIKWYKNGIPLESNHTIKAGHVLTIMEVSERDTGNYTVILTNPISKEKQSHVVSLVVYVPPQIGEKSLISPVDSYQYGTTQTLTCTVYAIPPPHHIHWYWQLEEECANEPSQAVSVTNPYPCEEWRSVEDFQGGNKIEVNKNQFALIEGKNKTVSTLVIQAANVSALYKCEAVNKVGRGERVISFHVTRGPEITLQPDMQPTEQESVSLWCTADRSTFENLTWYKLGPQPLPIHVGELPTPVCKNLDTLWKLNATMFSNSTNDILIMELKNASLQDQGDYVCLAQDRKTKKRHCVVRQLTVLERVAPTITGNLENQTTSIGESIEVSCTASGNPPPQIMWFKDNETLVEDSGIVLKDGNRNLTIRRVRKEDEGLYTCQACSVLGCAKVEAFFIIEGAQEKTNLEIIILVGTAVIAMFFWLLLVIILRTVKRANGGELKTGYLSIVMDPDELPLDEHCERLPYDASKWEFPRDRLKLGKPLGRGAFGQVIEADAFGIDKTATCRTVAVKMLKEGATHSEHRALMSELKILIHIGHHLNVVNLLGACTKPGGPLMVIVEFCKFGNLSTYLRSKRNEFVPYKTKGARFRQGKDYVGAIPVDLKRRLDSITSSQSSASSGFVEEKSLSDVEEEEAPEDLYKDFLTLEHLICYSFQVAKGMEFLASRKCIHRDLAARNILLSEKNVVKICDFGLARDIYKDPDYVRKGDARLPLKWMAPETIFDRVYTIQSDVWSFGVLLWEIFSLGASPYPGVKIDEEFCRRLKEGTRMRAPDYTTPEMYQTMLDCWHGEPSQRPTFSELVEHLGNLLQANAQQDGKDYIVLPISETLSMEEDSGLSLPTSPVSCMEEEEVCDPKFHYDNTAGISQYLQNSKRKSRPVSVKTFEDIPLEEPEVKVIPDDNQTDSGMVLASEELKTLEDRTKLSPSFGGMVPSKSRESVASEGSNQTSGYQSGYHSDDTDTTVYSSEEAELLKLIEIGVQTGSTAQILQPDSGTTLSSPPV
In words: cell microarray re-array, transfected HEK293. The procedure: (§3) Antibody binding was detected using AF647 fluorescent secondary anti-human IgG1 antibody. Primary hits (duplicate spots) were identified by analysing fluorescence (AF647 and ZsGreen1) on ImageQuant. Vectors encoding all hits were sequenced to confirm their correct identities. […] Slides were analysed as above. Flow cytometry confirmation screen: Expression vectors encoding ZsGreen1 only, or ZsGreen1 and PD1, FZDS, KDR or ULBP2, were transfected into human HEK293 cells. Each live transfectant was incubated with […] of each of the test antibodies and the Isotype control antibody. Cells were washed, and incubated with the same AF647 anti-human IgG Fc detection antibody as used in the cell microarray screens. Cells were again washed, and analysed by flow cytometry using an Accuri flow cytometer (BD). A 7AAD live/dead dye was used to exclude dead cells, and ZsGreen1-positive cells (i.e. transfected cells) were selected for analyses.
For the molecule B1, the binding result is “no binding (tested: 5 µg/ml)”.
The same measure, in the same setting: with B2 the entry was “no binding (tested: 5 µg/ml)”.
Same read-out and setting: with B3 the entry was “no binding (tested: 5 µg/ml)”.

The next experiment concerns the target T8, human FZD5 (frizzled class receptor 5) on transfected HEK293 cells (human, UniProt Q13467 27-585).
T8 construct: also called FZDS; FZ5
In words: cell microarray re-array, transfected HEK293. The procedure: as §3
Regarding B1, the binding result is listed as “no binding (tested: 5 µg/ml)”.
Same read-out and setting: the result for B2 reads “no binding (tested: 5 µg/ml)”; that for B3, “no binding (tested: 5 µg/ml)”.

The target of the next experiment is T2, human ULBP2 (UL16 binding protein 2) on …. In words: cell microarray re-array, transfected HEK293. The procedure:
as §3
On to B1, for which the binding result was “no binding (tested: 5 µg/ml)”.
Same read-out and setting: the result for B2 reads “no binding (tested: 5 µg/ml)”.
On the same count and under the same terms, with B3 the entry was “no binding (tested: 5 µg/ml)”.

For another experiment, the target named is T9, human PD1 His tagged (monomeric) (human, UniProt Q15116 25-170, limits assumed).
T9 construct: Soluble monomeric analyte; whole entry named; also called monomeric human PD1; not shown: His tag
T9 sequence (Q15116 25-170 limits assumed): as the sequence (Q15116 25-170 limits assumed) above
In words: SPR (Biacore), IgG captured, monomeric PD1-His analyte. As to the method: (§4) Affinity (KD) of purified IgGs was determined via SPR with antigen in-solution on a Biacore 3000 (GE). A mouse anti-human antibody (CH1 specific) was immobilized on a CM5 Sensor Chip to a level of 2000 RU in acetate buffer at pH 4.5 using amine coupling following the Wizard instructions for two channels. One channel was used for background signal correction. The standard running buffer HBS-EP pH 7.4 was used. Regeneration was performed with a single injection of 10 μl of 10 mM Glycine at pH 1.5 at 20 μl/minute. IgG samples were injected for 2 minutes at 50 nM at 30 μl/min followed by and off-rate of 60 seconds. […] The obtained sensorgrams were analysed using the Biacore 3000 evaluation (BIAevaluation) software. The KD was calculated by simultaneous fitting of the association and dissociation phases to a 1:1 Langmuir binding model.
(§5) Biacore analyses of binding affinity was performed for all IgGs to solution-phase, monomeric human and cyno PD1 proteins.
B1 displayed a Kd of 1.47 nM, a koff of 0.00028 s⁻¹ and a kon of 190000 M⁻¹ s⁻¹.
On to B2, for which the Kd came out at 1.91 nM, the koff came to 0.00029 s⁻¹ and the association rate constant (kon) turned out to be 150000 M⁻¹ s⁻¹.
The like results for B3 were, in that order, 1.3 nM, 0.00025 s⁻¹ and 200000 M⁻¹ s⁻¹.

The target in a further experiment is T3, cynomolgus monkey PD1 His tag …. The experiment is described as above. The procedure: as §4, §5
B1 registered a Kd of 3.4 nM, an off-rate constant (koff) of 0.00052 s⁻¹ and an on-rate constant (kon) of 150000 M⁻¹ s⁻¹.
The like results for B2 were, in that order, 2.8 nM, 0.00033 s⁻¹ and 120000 M⁻¹ s⁻¹.
The like results for B3 were, in that order, 4.9 nM, 0.00062 s⁻¹ and 130000 M⁻¹ s⁻¹.
